# Patent US20260015399A1 (Boehringer Ingelheim, published 2026)
# *1 amine or outer side, *2 acyl side, *3 side chain or, on linkers, in order; H or OH if unused. Side-chain parts run from the residue outwards. The star is where a group is joined. C18 diacid = O=C(O)CCCCCCCCCCCCCCCCC(=O)*; γGlu = O=C(O)[C@H](CCC(=O)[*:2])N[*:1]; Isovaleryl = CC(C)CC(=O)*; Ahx = NCCCCCC(=O)O
# T1: human NPY2 receptor (human, UniProt P49146 1-381)
# T1 construct: whole, on cells; also called hNPY2-R; hNPY2R
# T1 sequence (looked up): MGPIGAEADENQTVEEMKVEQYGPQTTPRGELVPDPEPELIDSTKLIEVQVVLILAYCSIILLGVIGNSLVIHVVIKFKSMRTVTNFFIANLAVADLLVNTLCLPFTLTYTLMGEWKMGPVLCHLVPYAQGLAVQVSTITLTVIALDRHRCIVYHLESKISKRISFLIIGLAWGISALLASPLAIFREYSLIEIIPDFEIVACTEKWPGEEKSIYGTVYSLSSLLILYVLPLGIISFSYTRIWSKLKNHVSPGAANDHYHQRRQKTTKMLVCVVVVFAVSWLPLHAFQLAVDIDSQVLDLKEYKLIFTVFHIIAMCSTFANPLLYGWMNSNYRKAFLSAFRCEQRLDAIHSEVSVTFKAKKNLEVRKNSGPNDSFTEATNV
# Molecular target: T1, human NPY2 receptor
# Assay: RLB: displacement of 125I-PYY(1-36) from hNPY2R membranes
row,Ki,Binder
1,2.28 nM,Isovaleryl-APEK([Ahx-γGlu-C18 diacid])PEEDAAPEEIQRYYVSLRHYYNWLTRQRY-NH2 (SMILES CC[C@H](C)[C@H](NC(=O)[C@H](CCC(=O)O)NC(=O)[C@H](CCC(=O)O)NC(=O)[C@@H]1CCCN1C(=O)[C@H](C)NC(=O)[C@H](C)NC(=O)[C@H](CC(=O)O)NC(=O)[C@H](CCC(=O)O)NC(=O)[C@H](CCC(=O)O)NC(=O)[C@@H]1CCCN1C(=O)[C@H](CCCCNC(=O)CCCCCNC(=O)CC[C@H](NC(=O)CCCCCCCCCCCCCCCCC(=O)O)C(=O)O)NC(=O)[C@H](CCC(=O)O)NC(=O)[C@@H]1CCCN1C(=O)[C@H](C)NC(=O)CC(C)C)C(=O)N[C@@H](CCC(N)=O)C(=O)N[C@@H](CCCNC(=N)N)C(=O)N[C@@H](Cc1ccc(O)cc1)C(=O)N[C@@H](Cc1ccc(O)cc1)C(=O)N[C@H](C(=O)N[C@@H](CO)C(=O)N[C@@H](CC(C)C)C(=O)N[C@@H](CCCNC(=N)N)C(=O)N[C@@H](Cc1c[nH]cn1)C(=O)N[C@@H](Cc1ccc(O)cc1)C(=O)N[C@@H](Cc1ccc(O)cc1)C(=O)N[C@@H](CC(N)=O)C(=O)N[C@@H](Cc1c[nH]c2ccccc12)C(=O)N[C@@H](CC(C)C)C(=O)N[C@H](C(=O)N[C@@H](CCCNC(=N)N)C(=O)N[C@@H](CCC(N)=O)C(=O)N[C@@H](CCCNC(=N)N)C(=O)N[C@@H](Cc1ccc(O)cc1)C(N)=O)[C@@H](C)O)C(C)C) [Compound 170]
2,2.05 nM,Isovaleryl-APAK([Ahx-γGlu-C18 diacid])PEEDASPEELQRYYVELRHYYNWLTRQRY-NH2 (SMILES CC(C)CC(=O)N[C@@H](C)C(=O)N1CCC[C@H]1C(=O)N[C@@H](C)C(=O)N[C@@H](CCCCNC(=O)CCCCCNC(=O)CC[C@H](NC(=O)CCCCCCCCCCCCCCCCC(=O)O)C(=O)O)C(=O)N1CCC[C@H]1C(=O)N[C@@H](CCC(=O)O)C(=O)N[C@@H](CCC(=O)O)C(=O)N[C@@H](CC(=O)O)C(=O)N[C@@H](C)C(=O)N[C@@H](CO)C(=O)N1CCC[C@H]1C(=O)N[C@@H](CCC(=O)O)C(=O)N[C@@H](CCC(=O)O)C(=O)N[C@@H](CC(C)C)C(=O)N[C@@H](CCC(N)=O)C(=O)N[C@@H](CCCNC(=N)N)C(=O)N[C@@H](Cc1ccc(O)cc1)C(=O)N[C@@H](Cc1ccc(O)cc1)C(=O)N[C@H](C(=O)N[C@@H](CCC(=O)O)C(=O)N[C@@H](CC(C)C)C(=O)N[C@@H](CCCNC(=N)N)C(=O)N[C@@H](Cc1c[nH]cn1)C(=O)N[C@@H](Cc1ccc(O)cc1)C(=O)N[C@@H](Cc1ccc(O)cc1)C(=O)N[C@@H](CC(N)=O)C(=O)N[C@@H](Cc1c[nH]c2ccccc12)C(=O)N[C@@H](CC(C)C)C(=O)N[C@H](C(=O)N[C@@H](CCCNC(=N)N)C(=O)N[C@@H](CCC(N)=O)C(=O)N[C@@H](CCCNC(=N)N)C(=O)N[C@@H](Cc1ccc(O)cc1)C(N)=O)[C@@H](C)O)C(C)C) [Compound 166]
3,5.82 nM,Isovaleryl-APEK([Ahx-γGlu-C18 diacid])PEEDAEPEELQAYYVSLRHYYNWLTRQRY-NH2 (SMILES CC(C)CC(=O)N[C@@H](C)C(=O)N1CCC[C@H]1C(=O)N[C@@H](CCC(=O)O)C(=O)N[C@@H](CCCCNC(=O)CCCCCNC(=O)CC[C@H](NC(=O)CCCCCCCCCCCCCCCCC(=O)O)C(=O)O)C(=O)N1CCC[C@H]1C(=O)N[C@@H](CCC(=O)O)C(=O)N[C@@H](CCC(=O)O)C(=O)N[C@@H](CC(=O)O)C(=O)N[C@@H](C)C(=O)N[C@@H](CCC(=O)O)C(=O)N1CCC[C@H]1C(=O)N[C@@H](CCC(=O)O)C(=O)N[C@@H](CCC(=O)O)C(=O)N[C@@H](CC(C)C)C(=O)N[C@@H](CCC(N)=O)C(=O)N[C@@H](C)C(=O)N[C@@H](Cc1ccc(O)cc1)C(=O)N[C@@H](Cc1ccc(O)cc1)C(=O)N[C@H](C(=O)N[C@@H](CO)C(=O)N[C@@H](CC(C)C)C(=O)N[C@@H](CCCNC(=N)N)C(=O)N[C@@H](Cc1c[nH]cn1)C(=O)N[C@@H](Cc1ccc(O)cc1)C(=O)N[C@@H](Cc1ccc(O)cc1)C(=O)N[C@@H](CC(N)=O)C(=O)N[C@@H](Cc1c[nH]c2ccccc12)C(=O)N[C@@H](CC(C)C)C(=O)N[C@H](C(=O)N[C@@H](CCCNC(=N)N)C(=O)N[C@@H](CCC(N)=O)C(=O)N[C@@H](CCCNC(=N)N)C(=O)N[C@@H](Cc1ccc(O)cc1)C(N)=O)[C@@H](C)O)C(C)C) [Compound 169]

# The remaining lines, values behind:
row,Binder,Ki
1,Isovaleryl-APEK([Ahx-γGlu-C18 diacid])PEEDATPEEIQRYYQSLRHYYNWLTRQRY-NH2 (SMILES CC[C@H](C)[C@H](NC(=O)[C@H](CCC(=O)O)NC(=O)[C@H](CCC(=O)O)NC(=O)[C@@H]1CCCN1C(=O)[C@@H](NC(=O)[C@H](C)NC(=O)[C@H](CC(=O)O)NC(=O)[C@H](CCC(=O)O)NC(=O)[C@H](CCC(=O)O)NC(=O)[C@@H]1CCCN1C(=O)[C@H](CCCCNC(=O)CCCCCNC(=O)CC[C@H](NC(=O)CCCCCCCCCCCCCCCCC(=O)O)C(=O)O)NC(=O)[C@H](CCC(=O)O)NC(=O)[C@@H]1CCCN1C(=O)[C@H](C)NC(=O)CC(C)C)[C@@H](C)O)C(=O)N[C@@H](CCC(N)=O)C(=O)N[C@@H](CCCNC(=N)N)C(=O)N[C@@H](Cc1ccc(O)cc1)C(=O)N[C@@H](Cc1ccc(O)cc1)C(=O)N[C@@H](CCC(N)=O)C(=O)N[C@@H](CO)C(=O)N[C@@H](CC(C)C)C(=O)N[C@@H](CCCNC(=N)N)C(=O)N[C@@H](Cc1c[nH]cn1)C(=O)N[C@@H](Cc1ccc(O)cc1)C(=O)N[C@@H](Cc1ccc(O)cc1)C(=O)N[C@@H](CC(N)=O)C(=O)N[C@@H](Cc1c[nH]c2ccccc12)C(=O)N[C@@H](CC(C)C)C(=O)N[C@H](C(=O)N[C@@H](CCCNC(=N)N)C(=O)N[C@@H](CCC(N)=O)C(=O)N[C@@H](CCCNC(=N)N)C(=O)N[C@@H](Cc1ccc(O)cc1)C(N)=O)[C@@H](C)O) [Compound 164],2.8 nM
2,Isovaleryl-APAK([Ahx-γGlu-C18 diacid])PEEAAEPEEIQRYYVALRHYYNWLTRQRY-NH2 (SMILES CC[C@H](C)[C@H](NC(=O)[C@H](CCC(=O)O)NC(=O)[C@H](CCC(=O)O)NC(=O)[C@@H]1CCCN1C(=O)[C@H](CCC(=O)O)NC(=O)[C@H](C)NC(=O)[C@H](C)NC(=O)[C@H](CCC(=O)O)NC(=O)[C@H](CCC(=O)O)NC(=O)[C@@H]1CCCN1C(=O)[C@H](CCCCNC(=O)CCCCCNC(=O)CC[C@H](NC(=O)CCCCCCCCCCCCCCCCC(=O)O)C(=O)O)NC(=O)[C@H](C)NC(=O)[C@@H]1CCCN1C(=O)[C@H](C)NC(=O)CC(C)C)C(=O)N[C@@H](CCC(N)=O)C(=O)N[C@@H](CCCNC(=N)N)C(=O)N[C@@H](Cc1ccc(O)cc1)C(=O)N[C@@H](Cc1ccc(O)cc1)C(=O)N[C@H](C(=O)N[C@@H](C)C(=O)N[C@@H](CC(C)C)C(=O)N[C@@H](CCCNC(=N)N)C(=O)N[C@@H](Cc1c[nH]cn1)C(=O)N[C@@H](Cc1ccc(O)cc1)C(=O)N[C@@H](Cc1ccc(O)cc1)C(=O)N[C@@H](CC(N)=O)C(=O)N[C@@H](Cc1c[nH]c2ccccc12)C(=O)N[C@@H](CC(C)C)C(=O)N[C@H](C(=O)N[C@@H](CCCNC(=N)N)C(=O)N[C@@H](CCC(N)=O)C(=O)N[C@@H](CCCNC(=N)N)C(=O)N[C@@H](Cc1ccc(O)cc1)C(N)=O)[C@@H](C)O)C(C)C) [Compound 167],4.58 nM
3,Isovaleryl-APEK([Ahx-γGlu-C18 diacid])PEADASPEELQRYYVELRHYYNWLTRQRY-NH2 (SMILES CC(C)CC(=O)N[C@@H](C)C(=O)N1CCC[C@H]1C(=O)N[C@@H](CCC(=O)O)C(=O)N[C@@H](CCCCNC(=O)CCCCCNC(=O)CC[C@H](NC(=O)CCCCCCCCCCCCCCCCC(=O)O)C(=O)O)C(=O)N1CCC[C@H]1C(=O)N[C@@H](CCC(=O)O)C(=O)N[C@@H](C)C(=O)N[C@@H](CC(=O)O)C(=O)N[C@@H](C)C(=O)N[C@@H](CO)C(=O)N1CCC[C@H]1C(=O)N[C@@H](CCC(=O)O)C(=O)N[C@@H](CCC(=O)O)C(=O)N[C@@H](CC(C)C)C(=O)N[C@@H](CCC(N)=O)C(=O)N[C@@H](CCCNC(=N)N)C(=O)N[C@@H](Cc1ccc(O)cc1)C(=O)N[C@@H](Cc1ccc(O)cc1)C(=O)N[C@H](C(=O)N[C@@H](CCC(=O)O)C(=O)N[C@@H](CC(C)C)C(=O)N[C@@H](CCCNC(=N)N)C(=O)N[C@@H](Cc1c[nH]cn1)C(=O)N[C@@H](Cc1ccc(O)cc1)C(=O)N[C@@H](Cc1ccc(O)cc1)C(=O)N[C@@H](CC(N)=O)C(=O)N[C@@H](Cc1c[nH]c2ccccc12)C(=O)N[C@@H](CC(C)C)C(=O)N[C@H](C(=O)N[C@@H](CCCNC(=N)N)C(=O)N[C@@H](CCC(N)=O)C(=O)N[C@@H](CCCNC(=N)N)C(=O)N[C@@H](Cc1ccc(O)cc1)C(N)=O)[C@@H](C)O)C(C)C) [Compound 171],2.83 nM
